The data set can be described thus: label from the status in PepcDB records.
As for “MANIEYDPERQLFHLHNDTFSYVIQVIRGYLVKRYCGPALDHFSGTAKLEDFSHAFNIQNDAAPYSLTTLPLEYSTLMGGDYRTPAYAVRNGHGQLIGNLKFDHYQILAGNESFNGTLPTARTPHGQTLIITMHDETQTLAVRLKYTIVGDLPVLLKQVEYRNLTDTTLTITHAASLQLDFDDHAYDLITLTGAHLNEAKVTRQPLTPGKKSIGSNYGASGPQGVPATILAAPATNEFAGEALGVTLLWSGNFNYTAQVDQFDNSRLVMGLNPELFAWQLKPGKPFVTPEAAVAYTNDGLNDLSRIFHRFFADHVMPLPRKNLIEYNTWETTYFDVSEAKILAEIPKAEELGVELLVIDDGWFKNRPNDAGQLGDWVPDPAKFPHGLRPVADAIHARGLAFGLWVEPEMISENSELYATHPDWAMQYVGQKPLRSRNQLILDLSQRIVQDHLITVLTNLVRDNHIDYLKWDYNRHFSQPGSPVLPPDQQGEVGYRYTRGLYRVLKTLRDTFPKLLIENCSSGGGRLDGGMIAYTDQTWTSDFTDPVYRMKIMNGFSLFFPLKIFVSHFTASPNLQDARLTPLHTRALLSLVGITGIECPPSQLSPAEAAAVKASFAFYKANRKELQNGLLFRLQPSHVNQDEVCWLITNAAKTKALVLTSVGVTSPIPHYQHVLLHYLDPKLSYQIDNTKNATGLELNHAGVTLPLAHGDFSATLMELTAVTNLPQPTAAPTLEHHHHHH”, the protein production entry was “failed”.
With “MANKFSAAVVYAVFSSFALNFFYQPGHVYASGATGAAQVVTELVARISGHNILPISASLILVNAPLFILAWRGIGKQFTVYTVITVVMSSVFIHFIPVTPLTHEPVINAVFGGAIMGFGVGNAMKSGISSGGTDIVSLYMRKKTGRSVGTLAFLVNGVIIFTAGVLFGWEYMLYSLIAIFVNSRVQDAIFTRQKRLQVMIVTKNPELLTKKLVNRFKHGVTILHDAEGGYTHTSQTVLMTVITMYEYQEFKDIIQKYDEHAFVSISENVRVLGKFAEVED”, the protein production result is recorded as “failed”.
The value for “MANKVEHRLSEQQMKALTDLPLVFLITHDQSKSWPITHAISWVYAKDETTIRFAIEADSLLVKTLADHPVFTLIFFADQSTYSLTCTDVAAWETTARLPLKVALYEGQIKEVRDILFYGAAVSDRPRVYKTYDEAAAMQLDQQIQDILKG” was “not failed”.
The entry for “MANLFSFLFLGTLGWGMSLYLMKILLVSLTPTEIVLYRMAIGAASLFILAKLFKLKTDNIRGLILDGIIVGTFNMTLPFYLTTYAVKTVSSSLASVINGLTPLCTLILGMVFFSSKQKLGVLNLLSIVLGFIGIIIINSDVSIYQGSAVEFIALLATTISYGVTANYFKYHARTKEPILVSAVSAFVSAITMLIFKCATESSINSWGIPQGMNQIIALLWLGIIGSGFCLYLYCSLIQNAGAVFASMITYLMTITGVIMGMIFLHETISHQVMIGCIFIFFSLILVNHAPLLEKILVSISRQISLKSARRYELNQ” is “failed”.
The entry for “MANLGMTGVADGNNSEQTYLGQINYQDQTITKASAKKLNREIDLQRASQLTLWAMPMVGMYQSYNSTIALFDLQEGDAPIIGLHEGYDGVYPFLTANVTTPYTISLVDLSETGPYVVNIPAGSIFGVANNAWQEPIKEIGSGNKETLLFVGPGQEYPKDFDGEVIQSDTNQILYFYRVLGVGAEAEKLKTAVTAYKLSDVANPPQVKFVIYKPKASDADVTIATQPRGMAYWEVVNQYIQNEPMADRDRFFYAWLKDLGIEKGKAFNPTPYQKEILLEGVNTGMAMAQSLAFNKTKKKFSSSLYGSDSGWEGVLAGMDPKIDLDTYSMINERTAYTYEAVTTSAGMIVENPGHGSAYIGSYYDADGNALMGGKNYTLHIEPNPPAANFWSITVYDIKNRLIIRNEIKRSDLSSRSESLVMNSDGSVDLYFGPEAPEGKEGNWIQSNDGESYFMYLRLYGPEQEYFDQTYPMNKIDKTKLEHHHHHH” is “failed”; for “MANLWIHALTVFMGFFAIMNPIANVPIFLSLTEGDDKKTTAMVASRALLLAFLIVTIFSVAGKLIFDLFGITLPAFQITGGLLVFLIGFHMLQGDQSSVQHPSETGKKKSPEAALSVTVSPLAMPILAGPGTIATAMNFSTGENFMEMAVTIVVFGVLCLITYVLFVSGEKFVTYIGASALGVITRMMGLILAVIGAQMVIAGIHGAFGLGAG” it is “failed”.
Take “MANNSPNAAVSVQSPTHQQALACLRELVGHPEAQFHDGQYEAIEALVDAGRRALVVQRTGWGKSAVYFVASLLLRRRGSGPTLIVSPLLALMRDQVAAAARAGVRAVAINSANALEWDTVLAQLAADEVDVLLVSPERLTNPSFRENQLPELIRRTGLLVIDEAHCISDWGHDFRPDYRRIADLIAQLPESVPVLATTATANSRVVHDIEEQLGAGVLTIRGALGRESLRLGVLTLPDSRDRLGWLLTHLADMPGSGIIYTLTVSAAEDTARLLAEAGHNVLSYTGRTDPADRERAEQLLKDNQVKALVATSALGMGFDKPDLGFVIHLGAPSSPVAYYQQVGRAGRGAANADVLLLPGSEDREIWQYFATASMPSAEKAAAVLGVLGEAGSALSTVALEARVDLRRTPLELLLKVLAVDGAVERVGGGWRSTGQPWNYDAERYARIAEARVDEQDSMVIYQDTAGCRMEYITSVLDDETAASCGRCDNCAGRWFPVDVAASAADAAGQTLRRAGIAVEPRLQWPSGMDRLGVAAKGKIKPDESVSEGRILARLTDLGWGGALRELFAAGAPDHAVDPAMLQACVQVLREWSGAEGGTPWSGVGRPAAVVSIPSRSKPQLVESLAQGIAGIGRMPYLGQLQPQYGGPTGARGGNSAYRLAGVWDRLVVGPELAQALAGTGGQPVLLVDDLIDSRWTMTVSARALRQAGVSAVLPLALAQAG”: the protein production entry is listed as “failed”.
In the case of “MANSLRTLFSVSTHGVFLNKRSSYRVRKVFVGMPLRICSEIPRFVSVSCIRSDMCGIMMLGKDVHDLLETSSGGNVEKGFLRWRNGGGMYHRSALIDSSALVEFGAVVHQEAILGAEVHIGSNTVIGSSVKIGPSTKIGNCSIGDLCVIHNGVCIGQDGFGFYVDDNGNMVKKPQTLNVKIGNRVEIGANTCIDRGSWRDTVIGDDTKIDNLVQIGHNVIIGKCCLFCGQVGIAGSAEIGDFVALGGRVAVRDHVSIVSKVRLAANSCVTKNITEPGDYGGFPAQEETITYSVCQTQED”, the protein production result is on record as “failed”.
The entry for “MANSTESGSLQSSSTVKVRSHYRPNNGTGSPGGRPRPKRGFLPLGKGLVWGGLVTLTATVAAIAGVGIGFFTPGPKGLVQQVIPGQSAGVEAGQADLFPYHISRPVNILVMGIDRVEPTEEEPNVDEFGGRSDTMLLVRFDPRENGLKLLSIPRDTRVFIPDVGYTKINDANAYGGPQLAARVINRNLGEVPIDRYVRVTTDALQELVDLVGGVEVFVPRPMFYEDKTQQLLIDLPAGLQTLNGQQAEQFVRFRYDANGDIGRVQRQETLLKALQNRLSHPSMITRIPKAIGIMQKTVDTNLTMEEILALVNFGRQLDRQEVQMVMLPGRFSQPAEFDGRSYWVMSDVGKRQVLRNYFDVIEEVPTWAETPGRSPESLRIALQNATDDPQALERVKEYLQSKDFRNFYETSESPQLLAETKILVQRGDLDGAHYLRQTLGGGVVEASSVGDLGSDLTIQVGMDLDQWLKESTPVDDSTPQF” is “failed”.
On to “MANYPKELPAQTQSRQPGIESEMNPSPVYEYEDYKGADKLKGKVALITGGDSGIGRAVSVAYAKEGADIAIVYKDEHEDAEETKKRVEQEGVKCLLIAGDVGEEEFCNEAVEKTVKELGGLDILVNNAGEQHPKESIKDITSEQLHRTFKTNFYSQFYLTKKAIDYLKPGSAIINTTSINPYVGNPTLIDYTATKGAINAFTRTMAQALVKDGIRVNAVAPGPIWTPLIPATFPEETVAQFGQDTPMGRPGQPVEHVGCYVLLASDESSYMTGQTLHVNGGNFVT”, for which the protein production result is “not failed”.
The entry for “MANYYEPPASGNRRDAVKGYNSGSFDDSAGDQSQTNDYQLKIKKSKSVPNADRAASRSWSFSDPESRRKRRVAGYKVYSVEQKMKGSIRKSFKWFKDIIGIS” is “failed”; for “MAPCAGGTCRTASERRHLQCRSRPSQGRQGGSKSAGRGFIAAEFPCLDGGEPISTARAFRDRNREFSPAMRAILDIVLIILDLYIWLLIASAILSWLIAFNVVNTRNQFVGAVSEFLYRITEPLLAPIRNLLPSLGGLDISPIILILLIMFLQRVITYYIYPAVF” it is “failed”.
For the sequence “MAPETLAPDTTGLEVRLRLTDDWFTACDLGALLPGRGVAALLPDGGQVALFRDRDGGLYAIDNRDPFTGAAVLSRGLTGTHQGRPFVASPLLKQRFDLTTGECLDDAAMRVETYRVQAVRAVPAVNAVNPALEHHHHHH”, the protein production result is “failed”.

The values above are taken from a protein production outcome set (Wang et al. 2014).
